The record followed here is PMC9719539, “Single-molecule characterization of subtype-specific β1 integrin mechanics” (Nature Communications, 2022).

pKd: −log10 of the molar value.

The pKd is the Kd on a negative log10 scale, so that one unit is a factor of ten. A high value points to a low Kd.

Assay [1] has as its target integrin αVβ3, intact, on K562 αVβ3 stable transfectants (human) (UniProt P06756). Nature of the assay: flow cytometry on cells; saturation binding of cRGDfK-TF5WS to K562 transfectants in L15 medium with 1% BSA and 1 mM Mn2+, no washing; background MFI measured with 10 mM EDTA and subtracted. On the technique in general: A flow cytometer gives signals particle by particle.

The target in assay [2] is integrin αVβ5, intact, on K562 αVβ5 stable transfectants (human) (UniProt P06756). The description is as above.
Assay [3] concerns the target integrin α5β1, intact, on wild type K562 cells (human (endogenous in K562)) (UniProt P08648). Nature of the assay: flow cytometry on cells; saturation binding of cRGDfK-TF5WS to K562 cells in L15 with 2 µM 12G10 Fab, which stabilizes the EO state (intrinsic affinity for the EO state); no washing.

Chain of integrin αVβ5, intact, on K562 αVβ5 stable transfectants (human) (P06756 31-1048, chain 1 of 2): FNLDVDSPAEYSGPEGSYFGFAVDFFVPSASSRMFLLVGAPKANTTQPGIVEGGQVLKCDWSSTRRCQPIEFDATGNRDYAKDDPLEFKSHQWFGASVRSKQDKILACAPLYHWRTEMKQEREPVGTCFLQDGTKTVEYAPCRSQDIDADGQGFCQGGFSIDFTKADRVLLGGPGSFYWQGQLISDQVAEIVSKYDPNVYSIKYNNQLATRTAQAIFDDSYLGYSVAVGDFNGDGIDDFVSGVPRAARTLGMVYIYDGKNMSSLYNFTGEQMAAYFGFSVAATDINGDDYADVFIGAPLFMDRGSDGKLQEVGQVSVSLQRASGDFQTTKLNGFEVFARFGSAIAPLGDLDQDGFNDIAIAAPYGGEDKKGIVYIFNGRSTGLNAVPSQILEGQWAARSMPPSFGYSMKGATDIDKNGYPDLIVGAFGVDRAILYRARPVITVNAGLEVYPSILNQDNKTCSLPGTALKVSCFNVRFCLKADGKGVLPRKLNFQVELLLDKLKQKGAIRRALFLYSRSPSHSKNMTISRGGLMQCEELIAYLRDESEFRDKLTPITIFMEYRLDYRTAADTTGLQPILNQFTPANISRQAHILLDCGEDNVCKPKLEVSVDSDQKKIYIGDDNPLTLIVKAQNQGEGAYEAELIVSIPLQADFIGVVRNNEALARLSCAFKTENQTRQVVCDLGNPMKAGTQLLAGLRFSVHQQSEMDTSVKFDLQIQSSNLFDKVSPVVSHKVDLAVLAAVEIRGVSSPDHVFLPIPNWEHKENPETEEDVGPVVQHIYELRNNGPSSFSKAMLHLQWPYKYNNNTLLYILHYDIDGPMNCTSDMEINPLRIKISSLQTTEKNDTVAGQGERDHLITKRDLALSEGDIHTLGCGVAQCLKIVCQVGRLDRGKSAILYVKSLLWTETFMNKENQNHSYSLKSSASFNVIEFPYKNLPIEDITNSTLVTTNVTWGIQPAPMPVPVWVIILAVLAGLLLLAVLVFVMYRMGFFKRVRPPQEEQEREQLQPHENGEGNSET
Chain of integrin αVβ5, intact, on K562 αVβ5 stable transfectants (human) (P18084 24-799, chain 2 of 2, further chain): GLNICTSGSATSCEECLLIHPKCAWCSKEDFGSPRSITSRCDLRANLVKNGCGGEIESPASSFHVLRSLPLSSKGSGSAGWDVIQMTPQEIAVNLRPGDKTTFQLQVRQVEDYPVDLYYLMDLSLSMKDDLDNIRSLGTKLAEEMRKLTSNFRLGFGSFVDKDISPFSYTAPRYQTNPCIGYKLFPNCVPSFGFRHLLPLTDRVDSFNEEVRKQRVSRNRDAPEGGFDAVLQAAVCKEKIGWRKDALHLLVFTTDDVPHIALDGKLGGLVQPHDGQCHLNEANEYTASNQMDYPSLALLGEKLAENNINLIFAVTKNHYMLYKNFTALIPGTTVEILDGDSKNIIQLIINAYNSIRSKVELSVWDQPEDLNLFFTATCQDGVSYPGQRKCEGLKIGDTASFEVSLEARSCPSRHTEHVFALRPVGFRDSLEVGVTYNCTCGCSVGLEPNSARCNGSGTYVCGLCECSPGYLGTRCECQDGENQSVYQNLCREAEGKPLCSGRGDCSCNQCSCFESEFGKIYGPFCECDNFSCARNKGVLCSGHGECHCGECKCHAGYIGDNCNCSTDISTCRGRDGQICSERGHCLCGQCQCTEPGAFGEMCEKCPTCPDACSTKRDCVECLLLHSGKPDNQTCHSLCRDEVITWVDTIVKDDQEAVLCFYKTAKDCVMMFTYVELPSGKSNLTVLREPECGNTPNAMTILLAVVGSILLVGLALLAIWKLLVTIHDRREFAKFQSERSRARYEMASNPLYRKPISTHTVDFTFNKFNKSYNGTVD
Chain of integrin αVβ3, intact, on K562 αVβ3 stable transfectants (human) (P06756 31-1048, chain 1 of 2): as the sequence (P06756 31-1048, chain 1 of 2) above
Chain of integrin αVβ3, intact, on K562 αVβ3 stable transfectants (human) (P05106 27-788, chain 2 of 2, further chain): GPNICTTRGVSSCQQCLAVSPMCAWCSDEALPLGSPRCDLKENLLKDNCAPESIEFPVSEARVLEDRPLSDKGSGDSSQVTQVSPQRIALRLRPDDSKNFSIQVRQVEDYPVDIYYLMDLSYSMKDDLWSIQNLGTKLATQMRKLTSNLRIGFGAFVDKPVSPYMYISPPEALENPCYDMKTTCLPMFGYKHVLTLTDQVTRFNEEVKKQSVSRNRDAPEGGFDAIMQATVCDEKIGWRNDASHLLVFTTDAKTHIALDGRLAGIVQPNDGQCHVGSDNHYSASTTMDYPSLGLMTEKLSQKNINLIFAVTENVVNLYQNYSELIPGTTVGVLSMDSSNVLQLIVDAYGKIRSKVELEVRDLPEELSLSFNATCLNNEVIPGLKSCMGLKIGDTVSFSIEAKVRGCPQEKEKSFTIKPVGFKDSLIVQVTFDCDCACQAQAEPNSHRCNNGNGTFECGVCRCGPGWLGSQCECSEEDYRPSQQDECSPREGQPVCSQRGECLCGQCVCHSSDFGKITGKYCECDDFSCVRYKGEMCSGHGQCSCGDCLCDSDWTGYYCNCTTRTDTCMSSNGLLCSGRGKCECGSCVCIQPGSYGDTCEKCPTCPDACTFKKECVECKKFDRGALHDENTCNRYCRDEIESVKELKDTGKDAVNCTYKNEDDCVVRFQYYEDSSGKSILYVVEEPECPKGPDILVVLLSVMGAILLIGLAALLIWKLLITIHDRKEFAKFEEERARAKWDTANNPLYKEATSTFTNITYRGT
Chain of integrin α5β1, intact, on wild type K562 cells (human (endogenous in K562)) (P08648 42-1049, chain 1 of 2): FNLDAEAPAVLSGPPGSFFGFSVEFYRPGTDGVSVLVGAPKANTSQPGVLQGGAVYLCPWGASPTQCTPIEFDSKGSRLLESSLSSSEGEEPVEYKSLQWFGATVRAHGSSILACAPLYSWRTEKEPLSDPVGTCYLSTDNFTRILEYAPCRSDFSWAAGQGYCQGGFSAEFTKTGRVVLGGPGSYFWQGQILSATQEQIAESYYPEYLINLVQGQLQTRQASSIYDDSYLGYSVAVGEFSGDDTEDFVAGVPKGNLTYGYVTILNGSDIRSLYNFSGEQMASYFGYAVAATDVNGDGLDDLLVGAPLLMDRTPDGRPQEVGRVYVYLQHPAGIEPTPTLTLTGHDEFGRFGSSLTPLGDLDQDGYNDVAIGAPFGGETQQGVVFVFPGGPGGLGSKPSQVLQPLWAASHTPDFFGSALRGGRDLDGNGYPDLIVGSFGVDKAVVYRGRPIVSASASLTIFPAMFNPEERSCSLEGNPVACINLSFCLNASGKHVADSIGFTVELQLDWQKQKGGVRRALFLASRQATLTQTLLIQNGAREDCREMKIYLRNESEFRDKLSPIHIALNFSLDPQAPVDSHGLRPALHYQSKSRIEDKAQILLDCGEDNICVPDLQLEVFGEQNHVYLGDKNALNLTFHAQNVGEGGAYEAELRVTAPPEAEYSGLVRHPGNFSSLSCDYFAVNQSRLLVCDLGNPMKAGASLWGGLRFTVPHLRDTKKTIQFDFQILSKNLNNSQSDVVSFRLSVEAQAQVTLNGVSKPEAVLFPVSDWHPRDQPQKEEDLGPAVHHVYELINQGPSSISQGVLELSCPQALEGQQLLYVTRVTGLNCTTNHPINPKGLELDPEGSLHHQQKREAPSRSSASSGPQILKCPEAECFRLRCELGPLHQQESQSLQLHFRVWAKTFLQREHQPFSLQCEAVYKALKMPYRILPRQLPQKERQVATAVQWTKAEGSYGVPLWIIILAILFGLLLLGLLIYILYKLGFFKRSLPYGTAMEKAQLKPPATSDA
Chain of integrin α5β1, intact, on wild type K562 cells (human (endogenous in K562)) (P05556 21-798, chain 2 of 2, further chain): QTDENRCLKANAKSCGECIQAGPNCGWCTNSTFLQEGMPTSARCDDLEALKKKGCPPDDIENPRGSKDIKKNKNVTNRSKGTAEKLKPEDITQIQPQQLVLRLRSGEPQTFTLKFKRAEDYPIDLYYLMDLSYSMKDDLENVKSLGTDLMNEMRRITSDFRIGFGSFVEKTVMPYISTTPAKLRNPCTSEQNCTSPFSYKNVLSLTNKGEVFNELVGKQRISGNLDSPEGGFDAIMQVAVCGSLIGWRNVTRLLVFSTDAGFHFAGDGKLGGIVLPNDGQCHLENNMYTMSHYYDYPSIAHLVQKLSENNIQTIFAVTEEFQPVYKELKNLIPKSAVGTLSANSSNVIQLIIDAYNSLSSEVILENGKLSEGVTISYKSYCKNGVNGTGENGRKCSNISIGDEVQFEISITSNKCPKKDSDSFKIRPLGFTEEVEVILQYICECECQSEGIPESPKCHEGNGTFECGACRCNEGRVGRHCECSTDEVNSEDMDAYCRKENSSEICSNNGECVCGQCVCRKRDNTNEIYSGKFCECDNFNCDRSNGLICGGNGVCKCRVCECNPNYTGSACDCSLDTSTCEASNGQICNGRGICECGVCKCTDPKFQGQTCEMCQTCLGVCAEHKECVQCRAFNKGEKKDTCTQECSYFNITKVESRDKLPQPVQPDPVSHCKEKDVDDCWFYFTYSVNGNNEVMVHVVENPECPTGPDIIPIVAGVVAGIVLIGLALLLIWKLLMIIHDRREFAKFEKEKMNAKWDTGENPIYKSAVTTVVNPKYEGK

On to “cRGDfK peptide with lysine side chain conjugated with TideFluor5WS”, for which the pKd is 7.55 in assay [1], 7.62 in assay [2] and 7.07 in assay [3].
